Measured values: patent publication US11254722B2, “Recombinant proteins and uses thereof” (ACADEMIA SINICA, priority 2017, dated 2022)
Read-outs that look alike come from different tables or passages of the source. Values belong to the molecule of their own block, whether it stands above or below them.

How the values were obtained:
hep3B cells [1] = experiment: hep3B proliferation assay; assay type: cell-based, human; conditions: for IC50: Table 10
Description: (§1) For the proliferation assay, cells except for HUVEC were seeded at a density of 1,000 to 6,000 in 96 wells in an assay buffer of DMEM/F12 plus 0.2% BSA and 10 ug/ml transferrin. Chemical inhibitors were added after 16-20 hours after plating; IGF-1 or other growth factors or test chimeras in assay buffer were added at the time of plating or 16-20 hours after plating. 5,000 HUVEC ells were plated in poly-L-lysine coated 96 wells in M199 with 1%/FBS and HEPES. After 3 to 4 days of culture, growth was determined by incubating cells with Alamar blue for 4 to 6 hours and then the fluorescence (RFU) at 544/590 nm was read. For long term proliferation assays, cells were plated in the growth media with 5% or 10% FBS at densities of 500 to 10,000 cells per cm^2 growth area and grown for 7 to 21 days. Inhibitors and effectors were added 1-4 days after plating. Cells were exposed to cisplatin or gemcitabine for two days. Medium was renewed twice weekly. At completion, cells were fixed and then stained with Giemsa.
The human hepatoma cell line hep3B could be stimulated by many growth factors including IGF-1, IGF-2, HGF, bFGF, VEGF, and neuregulin.

HT29 cells = experiment: HT29 proliferation assay; assay type: cell-based, human
Description: (§2) MCF-7 cells (a breast cancer cell line) were maintained in MEM (GIBCO) plus insulin and NEAA and 10% FBS (Hyclone).
as §1
The combination of drug (erlotinib and vemurafenib in hep3b and HT29 cells, respectively) and chimera can be synergistic; so, in addition to enhancing the inhibition, the chimera addition may also lower drug concentration requirements and reduce side effects.

[2] = test system: A549 lung carcinoma cells; experiment: A549 proliferation assay; assay type: cell-based
Description: as §2, §1
Since the A549 cell line contains a KRAS mutation, it is expected that A549 cells be resistant to TKIs such as AZD9291 and erlotinib. MEK inhibitors such as trametinib were designed to target the RAS/MEK/ERK pathway. […]

PC-9 cells = experiment: PC-9 proliferation and clonal density assays; assay type: cell-based, human
Description: as §2, §1
Proliferation assays at clonal densities allows measurement of these DTPs. PC-9 cells are a human non-small cell lung cancer line with a EGFR deletion with high sensitivity to EGFR TKI's (24).

PC-91R = PC-91R gefitinib-resistant cell proliferation; assay type: cell-based; conditions: FIG. 24A, FIG. 24B
Description: as §1
One mechanism of EGFR TKI resistance is the transition from an epithelial to mesenchymal phenotype (16). […] Consequently, a combination of chimera D3 and TKI may limit the resistance caused by epithelial to mesenchymal transition.

HUH7 = HUH7 survival and growth with TKI; assay type: cell-based, human; conditions: FIG. 21
Description: as §2, §1
(§3) The addition of chimera D3 to gefitinib reduced this number by about 100-fold.

A431 = A431 survival and growth with TKI; assay type: cell-based, human; conditions: FIG. 21
Description: as §2, §1, §3

[3] = test system: H1975-T790M gefitinib-resistant; experiment: H1975 survival and growth with TKI; assay type: cell-based, human; conditions: FIG. 21
Description: as §2, §1, §3

Hep3B cells [4] = experiment: Hep3B subcutaneous tumors in NOD-Scid mice; assay type: in vivo
Description: Hep3B cells were infected with GFP-luciferase lentivirus. The cells with highest GFP expression were selected by FACS sort, and the resulting population was expanded. Two million hep3B cells mixed with Matrigel were injected subcutaneously in NOD-Scid mice, and measurable signal was obtained after 7 days. Treatment began at 8 days after injection (day 0). Luciferase was measured as per the standard Xenogen protocol. IGFBP3.Fc D3 (i.e., the 3(del3)3 chimera) at 20 mg/kg was injected twice weekly; saline was injected in the control group. Tumor growth was measured twice weekly by measuring the luminescence. […]

[5] = test system: PC-9 non-small cell lung cancer cells; experiment: PC-9 subcutaneous tumors in NSG mice, daily erlotinib; assay type: in vivo; conditions: chimera D3 plus erlotinib
Description: (§4) 5×10exp6 PC-9 non-small cell lung cancer cells were injected subcutaneously in Nod scid gamma (NSG) mice. […] Erlotinib in 6% captisol was dosed orally daily at 25 mg/kg; IGFBP3Fc (3(del3)3) was dosed intraperitoneally at 25 mg/kg three times per week; control animals were administered vehicle. Dosing was started on day 11; erlotinib and erlotinib plus D3 was discontinued on day 19; D3 injections were discontinued on day 22.

PC-9 tumors = experiment: PC-9 subcutaneous tumors in mice, low dose erlotinib; assay type: in vivo; conditions: erlotinib 25 mg/kg 3 times per week; FIG. 27
Description: as §4
Subcutaneous PC-9 tumors were generated and measured as above. Chimera D3 was dosed as above; erlotinib was dosed at 25 mg/kg 3 times per week in order to examine the effect of the chimera D3 on the tumor growth with suboptimal erlotinib dosing. The treatment started on day 8 and ended on day 22.

[6] = test system: MCF-7 breast cancer cells; experiment: MCF-7 proliferation assay; assay type: cell-based; conditions: FIG. 5
Description: as §2, §1
We next examined the effect of 56662 (BP3/Fc) on the proliferation induced by growth factors that interacted with the IGFBP3. The proliferation of MCF-7 breast cancer cells was induced in serum-free medium by individual growth factors like IGF-1, IGF-2, EGF, TGF-a, Nrgbx, b-FGF, and amphiregulin (FIG. 1).

HUVEC cells = experiment: HUVEC proliferation assay; assay type: cell-based
Description: as §2, §1
Growth factor synergism can also be observed in the proliferation of HUVEC cells.

IGF-1 and VEGF = experiment: Competition binding ELISA with biotinylated IGF-1 or biotinylated VEGF; conditions: competitive inhibition data, FIG. 8 and FIG. 9
Description: Plates were coated with goat anti-human Fc antibody, blocked and then incubated with chimera as in the Fc ELISA. Biotinylated IGF-1 (GroPep) or VEGF-Biotin (R&D Systems VEGF biotinylated with sulfo-NHS-LC-biotin as per instructions (Pierce) was added for 2 hours followed by streptavidin-HRP (Jackson Immunoresearch) for 30 minutes. Chromogenic development with tetramethyl benzidine was performed as described above.
ELISA plates were coated with 0.5 μg/ml growth factor (IGF-1, IGF-2, VEGF, etc.) in PBS overnight and blocked as described above. After overnight incubation with chimera, chimera binding was detected with anti-human Fc-HRP and development with tetramethyl benzidine as described above.
Binding specificity was also studied by competition binding assays using biotinylated IGF-1 (IGF-1-bio) or biotinylated VEGF (VEGF-bio) in the growth factor ELISA assay.

[7] = number of tumors, increase in the tumor size
[8] = number of tumors, no measurable tumor
[9] = number of tumors, partial regression means a 20% or greater decrease in the tumor size

IC50 (hep3B cells [1]; read-out: IC50, FBS-stimulated proliferation of hep3B cells): 105 nM
IC50 (hep3B cells [1]; read-out: IC50, HGF-stimulated proliferation of hep3B cells): 47 nM
IC50 (hep3B cells [1]; read-out: IC50, IGF1-stimulated proliferation of hep3B cells): 28 nM
IC50 (hep3B cells [1]; read-out: IC50, bFGF-stimulated proliferation of hep3B cells): 69 nM
IC50 (hep3B cells [1]; read-out: IC50, nrg-stimulated proliferation of hep3B cells): 78 nM
EC50 (hep3B cells [1]; hep3B, FIG. 11C, read-out: ECK for FBS-induced proliferation): 85 nM
decrease of the IC50 of gefitinib (PC-9 cells; 200 nM D3Fc, PC-9, four-day assay, FIG. 19A): 70 fold
B1: chimera D3: IGFBP3 with IGFBP3 linker deletion 3-Fc, SEQ ID NO: 12 (protein)
chain: MSEVPVARVWLVLLLLTVQVGVTAGGASSAGLGPVVRCEPCDARALAQCAPPPAVCAELVREPGCGCCLTCALSEGQPCGIYTERCGSGLRCQPSPDEARPLQALLDGRGLCVNASAVSRPAPPAPGNASESEEDRSAGSVESPSVSSTHRVSDPKFHPKGHAKVDYESQSTDTQNFSSESKRETEYGPCRREMEDTLNHLKFLNVLSPRGVHIPNCDKKGFYKKKQCRPSKGRKRGFCWCVDKYGQPLPGYTTKGKEDVHCYSMQSKVECPPCPAPPVAGPSVFLFPPKPKDQLMISRTPEVTCVVVDVSHEDPEVKFNWYVDGVEVHNAKTKPREEQYNSTYRVVSVLTVLHQDWLNGKEYKCKVSNKGLPSSIEKTISKAKGQPREPQVYTLPPSREEMTKNQVSLTCLVKGFYPSDIAVEWESNGQPENNYKTTPPVLDSDGSFFLYSKLTVDKSRWQQGNVFSCSVMHEGLHNHYTQKSLSLSPGK
hep3B proliferation on co-treatment with doxorubicin (hep3B cells [1]; 0.01 uM doxorubicin plus chimera D3): reduced proliferation even further
hep3B proliferation on co-treatment with erlotinib, sorafenib or afatinib (hep3B cells [1]; 2 uM erlotinib, 2 uM sorafenib, or 0.15 uM afatinib, FIG. 16B): further reduced cell proliferation
proliferation of hep3B cells treated with chimera alone vs no inhibitor (hep3B cells [1]; FIG. 16B): reduced significantly
bFGF, IGF1, bFGF/IGF1, HGF and HGF/IGF rescue of erlotinib-treated hep3b cells (hep3B cells [1]; clonal proliferation assay, FIG. 22B): inhibited
inhibition of hep3B cells treated with erlotinib (hep3B cells [1]; combination with erlotinib, FIG. 15, FIG. 16A): synergistically inhibited
cancer cell survival and growth on addition to TKI (hep3B cells [1]; hep3B, FIG. 21): further inhibited
inhibition with vemurafenib in HT29 cells (HT29 cells; FIG. 17A isobologram, FIG. 17B): synergistic inhibition
cancer cell survival and growth on addition to TKI (HT29 cells; HT29, FIG. 21): further inhibited
A549 growth on addition to cisplatin ([2]; FIG. 18B): further inhibited
growth of A549 lung carcinoma cells ([2]; alone, or in combination with the TK (AZD9291, trametinib), FIG. 18A): reduced the growth
bFGF and HGF rescue of osimertinib-treated PC-9 cells (PC-9 cells; FIG. 23): inhibited such rescue
clonal density assay with gefitinib (PC-9 cells; PC-9, FIG. 19B): decreased the IC50 and reduced surviving cells
IGF1-induced cell survival under gefitinib (PC-9 cells; PC-9, FIG. 20): dramatically reduced
cell growth with bFGF under gefitinib (PC-9 cells; PC-9, FIG. 20): substantially reduced cell growth
cancer cell survival and growth on addition to TKI (PC-9 cells; PC-9, FIG. 21): further inhibited
reduction of the number of PC-9 cells surviving gefitinib (PC-9 cells; addition of chimera D3 to gefitinib): about 100 fold
sensitivity of gefitinib-resistant PC-91R cells to gefitinib (PC-91R): restored the cancer cells' sensitivity to gefitinib
cancer cell survival and growth on addition to TKI (HUH7): further inhibited
cancer cell survival and growth on addition to TKI (A431): further inhibited
cancer cell survival and growth on addition to TKI [3]: further inhibited
hep3B tumor growth compared with control mice (Hep3B cells [4]; 20 mg/kg twice weekly, luminescence, FIG. 25): grew more slowly
T/C (tumor volume treated/control) ratio (Hep3B cells [4]; D3 alone, day 25): 63%
tumor growth inhibition (Hep3B cells [4]; D3 alone, day 25, p value of 0.0025): 37%
Progression, Day 12 (Hep3B cells [4]; [7]): 5
Progression, Day 22 (Hep3B cells [4]; [7]): 4
Complete regression, Day 12 (Hep3B cells [4]; [8]): 2
Complete regression, Day 22 (Hep3B cells [4]; [8]): 3
Partial regression, Day 12 (Hep3B cells [4]; [9]): 1
Partial regression, Day 22 (Hep3B cells [4]; [9]): 1
tumor growth after erlotinib treatment was stopped on day 19, compared to the erlotinib group ([5]; FIG. 26): delayed tumor growth
tumor volume of treated to control (T/C) ([5]; day 20): 32%
tumor inhibition on addition of chimera D3 to erlotinib (PC-9 tumors): clearly improved the tumor inhibition

simultaneous binding of IGF and VEGF (IGF-1 and VEGF): could bind simultaneously
B2: chimera A: IGFBP3 with IGFBP3 linker deletion 1-gly 3 linker-v1v2-Fc, SEQ ID NO: 14 (protein)
chain: MSEVPVARVWLVLLLLTVQVGVTAGGASSAGLGPVVRCEPCDARALAQCAPPPAVCAELVREPGCGCCLTCALSEGQPCGIYTERCGSGLRCQPSPDEARPLQALLDGRGLCVNASAVSKGHAKDSQRYKVDYESQSTDTQNFSSESKRETEYGPCRREMEDTLNHLKFLNVLSPRGVHIPNCDKKGFYKKKQCRPSKGRKRGFCWCVDKYGQPLPGYTTKGKEDVHCYSMQSKAPPAPGNASESEEDRSAGIYIFISDTGRPFVEMYSEIPEIIHMTEGRELVIPCRVTSPNITVTLKKFPLDTLIPDGKRIIWDSRKGFIISNATYKEIGLLTCEATVNGHLYKTNYLTHRQGYRIYDVVLSPSHGIELSVGEKLVLNCTARTELNVGIDFNWEYPSSKHQHKKLVNRDLKTQSGSEMKKFLSTLTIDGVTRSDQGLYTCAASSGLMTKKNSTFVRVHEKVECPPCPAPPVAGPSVFLFPPKPKDQLMISRTPEVTCVVVDVSHEDPEVKFNWYVDGVEVHNAKTKPREEQYNSTYRVVSVLTVLHQDWLNGKEYKCKVSNKGLPSSIEKTISKAKGQPREPQVYTLPPSREEMTKNQVSLTCLVKGFYPSDIAVEWESNGQPENNYKTTPPVLDSDGSFFLYSKLTVDKSRWQQGNVFSCSVMHEGLHNHYTQKSLSLSPGK
inhibition of IGF-1-induced proliferation of MCF-7, compared to 56662 and chimera B [6]: a smaller EC50 and a higher maximal inhibition
rescue by HGF, bFGF, or IGF in hep3b cells treated with erlotinib (hep3B cells [1]; FIG. 22A): decreased the rescue
inhibition of VEGF-induced proliferation of HUVEC cells (HUVEC cells; FIG. 6, FIG. 13): potent inhibition
inhibition of HUVEC proliferation stimulated by IGF-1, bFGF, HGF, VEGF, and combinations (HUVEC cells; FIG. 14): inhibited
